Data reported in US20210246166A1 (Bayer, published 2021).
Numbered stars: 1 amine (or outer) side, 2 acyl side, 3 side chain; on linkers, the order of the positions; unused ones are H or OH. Bridge positions count the residues as written; N and C are the ends. Square brackets hold non-standard residues; d marks the D form. Ends that are not written are not given here. X13 = (2S)‑2‑amino‑3‑(1-methylcyclopropyl)propanoic acid, CC1(C[C@H](N[*:1])C(=O)[*:2])CC1; Phe(2,5-diF) = O=C([C@H](Cc1cc(F)ccc1F)N[*:1])[*:2]; Oic = O=C(O)[C@@H]1C[C@@H]2CCCC[C@@H]2N1; tBuAla = CC(C)(C)C[C@H](N)C(=O)O; PEG4 = NCCOCCOCCOCCOCCC(=O)O; Pen = CC(C)(S)[C@H](N)C(=O)O; ΔPro = O=C(O)[C@@H]1C=CCN1; 4Amb = NCc1ccc(C(=O)O)cc1; NMeC = CN[C@@H](CS)C(=O)O; Nva = CCC[C@H](N)C(=O)O; Ac4c = NC1(C(=O)O)CCC1; PEG2 = NCCOCCOCCC(=O)O; Sar = CNCC(=O)O

B1: Example 212: GIC+SRS-((tBu)A)-P-(Oic)-I-((N-Me)C)+IPD-NH2 (peptide)
peptide: GICSRS[tBuAla]P[Oic]I[NMeC]IPD-NH2
modifications: disulfide 3-11; N-terminus assumed
SMILES: CC[C@H](C)[C@H](NC(=O)CN)C(=O)N[C@H]1CSSC[C@@H](C(=O)N[C@H](C(=O)N2CCC[C@H]2C(=O)N[C@@H](CC(=O)O)C(N)=O)[C@@H](C)CC)N(C)C(=O)[C@H]([C@@H](C)CC)NC(=O)[C@@H]2C[C@@H]3CCCC[C@@H]3N2C(=O)[C@@H]2CCCN2C(=O)[C@H](CC(C)(C)C)NC(=O)[C@H](CO)NC(=O)[C@H](CCCNC(=N)N)NC(=O)[C@H](CO)NC1=O
B2: Example 237: AIC+SRSL-(L-dehydroproline)-(Oic)-I-(Pen)+IPD-OH (peptide)
peptide: AICSRSL[ΔPro][Oic]I[Pen]IPD-OH
modifications: disulfide 3-11; N-terminus assumed
SMILES: CC[C@H](C)[C@H](NC(=O)[C@H](C)N)C(=O)N[C@H]1CSSC(C)(C)[C@@H](C(=O)N[C@H](C(=O)N2CCC[C@H]2C(=O)N[C@@H](CC(=O)O)C(=O)O)[C@@H](C)CC)NC(=O)[C@H]([C@@H](C)CC)NC(=O)[C@@H]2C[C@@H]3CCCC[C@@H]3N2C(=O)[C@@H]2C=CCN2C(=O)[C@H](CC(C)C)NC(=O)[C@H](CO)NC(=O)[C@H](CCCNC(=N)N)NC(=O)[C@H](CO)NC1=O
B3: Example 224: AIC+SRSLP-(Oic)-IC+IPD-NH2 (peptide)
peptide: AICSRSLP[Oic]ICIPD-NH2
modifications: disulfide 3-11; N-terminus assumed
SMILES: CC[C@H](C)[C@H](NC(=O)[C@H](C)N)C(=O)N[C@H]1CSSC[C@@H](C(=O)N[C@H](C(=O)N2CCC[C@H]2C(=O)N[C@@H](CC(=O)O)C(N)=O)[C@@H](C)CC)NC(=O)[C@H]([C@@H](C)CC)NC(=O)[C@@H]2C[C@@H]3CCCC[C@@H]3N2C(=O)[C@@H]2CCCN2C(=O)[C@H](CC(C)C)NC(=O)[C@H](CO)NC(=O)[C@H](CCCNC(=N)N)NC(=O)[C@H](CO)NC1=O
B4: Example 208: (ACBA)-IC+SRS-((tBu)A)-PPI-(Pen)+I-NH2 (peptide)
peptide: [Ac4c]ICSRS[tBuAla]PPI[Pen]I-NH2
modifications: disulfide 3-11; N-terminus assumed
SMILES: CC[C@H](C)[C@H](NC(=O)[C@H]1NC(=O)[C@H]([C@@H](C)CC)NC(=O)[C@@H]2CCCN2C(=O)[C@@H]2CCCN2C(=O)[C@H](CC(C)(C)C)NC(=O)[C@H](CO)NC(=O)[C@H](CCCNC(=N)N)NC(=O)[C@H](CO)NC(=O)[C@@H](NC(=O)[C@@H](NC(=O)C2(N)CCC2)[C@@H](C)CC)CSSC1(C)C)C(N)=O
B5: Example 235: AIC+SRS-((2,5-Difluoro)F)-PPI-((N-Me)C)+IPD-NH2 (peptide)
peptide: AICSRS[Phe(2,5-diF)]PPI[NMeC]IPD-NH2
modifications: disulfide 3-11; N-terminus assumed
SMILES: CC[C@H](C)[C@H](NC(=O)[C@H](C)N)C(=O)N[C@H]1CSSC[C@@H](C(=O)N[C@H](C(=O)N2CCC[C@H]2C(=O)N[C@@H](CC(=O)O)C(N)=O)[C@@H](C)CC)N(C)C(=O)[C@H]([C@@H](C)CC)NC(=O)[C@@H]2CCCN2C(=O)[C@@H]2CCCN2C(=O)[C@H](Cc2cc(F)ccc2F)NC(=O)[C@H](CO)NC(=O)[C@H](CCCNC(=N)N)NC(=O)[C@H](CO)NC1=O
B6: Example 199: A-(Nva)-C+SRS-((tBu)A)-PPI-(Pen)+IPD-NH2 (peptide)
peptide: A[Nva]CSRS[tBuAla]PPI[Pen]IPD-NH2
modifications: disulfide 3-11; N-terminus assumed
SMILES: CCC[C@H](NC(=O)[C@H](C)N)C(=O)N[C@H]1CSSC(C)(C)[C@@H](C(=O)N[C@H](C(=O)N2CCC[C@H]2C(=O)N[C@@H](CC(=O)O)C(N)=O)[C@@H](C)CC)NC(=O)[C@H]([C@@H](C)CC)NC(=O)[C@@H]2CCCN2C(=O)[C@@H]2CCCN2C(=O)[C@H](CC(C)(C)C)NC(=O)[C@H](CO)NC(=O)[C@H](CCCNC(=N)N)NC(=O)[C@H](CO)NC1=O
B7: Example 197: ((N-Me)G)-IC+SRS-((2S)-2-amino-3-(1-methylcyclopropyl)propanoic acid)-PPI-(Pen)+IP-NH2 (peptide)
peptide: [Sar]ICSRS[X13]PPI[Pen]IP-NH2
modifications: disulfide 3-11; N-terminus assumed
SMILES: CC[C@H](C)[C@H](NC(=O)CNC)C(=O)N[C@H]1CSSC(C)(C)[C@@H](C(=O)N[C@H](C(=O)N2CCC[C@H]2C(N)=O)[C@@H](C)CC)NC(=O)[C@H]([C@@H](C)CC)NC(=O)[C@@H]2CCCN2C(=O)[C@@H]2CCCN2C(=O)[C@H](CC2(C)CC2)NC(=O)[C@H](CO)NC(=O)[C@H](CCCNC(=N)N)NC(=O)[C@H](CO)NC1=O
B8: Example 187: (4-(Aminomethyl)benzoic acid)-IC+SRS-((tBu)A)-PPI-(Pen)+IPD-NH2 (peptide)
peptide: [4Amb]ICSRS[tBuAla]PPI[Pen]IPD-NH2
modifications: disulfide 3-11; N-terminus assumed
SMILES: CC[C@H](C)[C@H](NC(=O)c1ccc(CN)cc1)C(=O)N[C@H]1CSSC(C)(C)[C@@H](C(=O)N[C@H](C(=O)N2CCC[C@H]2C(=O)N[C@@H](CC(=O)O)C(N)=O)[C@@H](C)CC)NC(=O)[C@H]([C@@H](C)CC)NC(=O)[C@@H]2CCCN2C(=O)[C@@H]2CCCN2C(=O)[C@H](CC(C)(C)C)NC(=O)[C@H](CO)NC(=O)[C@H](CCCNC(=N)N)NC(=O)[C@H](CO)NC1=O
B9: Example 232: ((N-Me)G)-IC+SRSLPPI-((N-Me)C)+IPD-OH (peptide)
peptide: [Sar]ICSRSLPPI[NMeC]IPD-OH
modifications: disulfide 3-11; N-terminus assumed
SMILES: CC[C@H](C)[C@H](NC(=O)CNC)C(=O)N[C@H]1CSSC[C@@H](C(=O)N[C@H](C(=O)N2CCC[C@H]2C(=O)N[C@@H](CC(=O)O)C(=O)O)[C@@H](C)CC)N(C)C(=O)[C@H]([C@@H](C)CC)NC(=O)[C@@H]2CCCN2C(=O)[C@@H]2CCCN2C(=O)[C@H](CC(C)C)NC(=O)[C@H](CO)NC(=O)[C@H](CCCNC(=N)N)NC(=O)[C@H](CO)NC1=O
B10: Example 174: ((N-Me)G)-IC+SRS-((tBu)A)-PPI-(Pen)+IP-(PEG3(16atoms))-NH2 (peptide)
peptide: [Sar]ICSRS[tBuAla]PPI[Pen]IP[PEG4]-NH2
modifications: disulfide 3-11; N-terminus assumed
SMILES: CC[C@H](C)[C@H](NC(=O)CNC)C(=O)N[C@H]1CSSC(C)(C)[C@@H](C(=O)N[C@H](C(=O)N2CCC[C@H]2C(=O)NCCOCCOCCOCCOCCC(N)=O)[C@@H](C)CC)NC(=O)[C@H]([C@@H](C)CC)NC(=O)[C@@H]2CCCN2C(=O)[C@@H]2CCCN2C(=O)[C@H](CC(C)(C)C)NC(=O)[C@H](CO)NC(=O)[C@H](CCCNC(=N)N)NC(=O)[C@H](CO)NC1=O
B11: Example 185: AIC+SRSLP-(Oic)-I-((N-Me)C)+IPD-NH2 (peptide)
peptide: AICSRSLP[Oic]I[NMeC]IPD-NH2
modifications: disulfide 3-11; N-terminus assumed
SMILES: CC[C@H](C)[C@H](NC(=O)[C@H](C)N)C(=O)N[C@H]1CSSC[C@@H](C(=O)N[C@H](C(=O)N2CCC[C@H]2C(=O)N[C@@H](CC(=O)O)C(N)=O)[C@@H](C)CC)N(C)C(=O)[C@H]([C@@H](C)CC)NC(=O)[C@@H]2C[C@@H]3CCCC[C@@H]3N2C(=O)[C@@H]2CCCN2C(=O)[C@H](CC(C)C)NC(=O)[C@H](CO)NC(=O)[C@H](CCCNC(=N)N)NC(=O)[C@H](CO)NC1=O
B12: Example 211: FIC+SRS-((tBu)A)-PPI-(Pen)+IPD-NH2 (peptide)
peptide: FICSRS[tBuAla]PPI[Pen]IPD-NH2
modifications: disulfide 3-11; N-terminus assumed
SMILES: CC[C@H](C)[C@H](NC(=O)[C@@H](N)Cc1ccccc1)C(=O)N[C@H]1CSSC(C)(C)[C@@H](C(=O)N[C@H](C(=O)N2CCC[C@H]2C(=O)N[C@@H](CC(=O)O)C(N)=O)[C@@H](C)CC)NC(=O)[C@H]([C@@H](C)CC)NC(=O)[C@@H]2CCCN2C(=O)[C@@H]2CCCN2C(=O)[C@H](CC(C)(C)C)NC(=O)[C@H](CO)NC(=O)[C@H](CCCNC(=N)N)NC(=O)[C@H](CO)NC1=O

Columns and labels:
[1] = target: T1, recombinant rat MASP1 active protease (amino acids 302-704, C-terminal His Tag) (rat, UniProt Q8CHN8 302-704); assay: cell-based or functional assay
T1 sequence: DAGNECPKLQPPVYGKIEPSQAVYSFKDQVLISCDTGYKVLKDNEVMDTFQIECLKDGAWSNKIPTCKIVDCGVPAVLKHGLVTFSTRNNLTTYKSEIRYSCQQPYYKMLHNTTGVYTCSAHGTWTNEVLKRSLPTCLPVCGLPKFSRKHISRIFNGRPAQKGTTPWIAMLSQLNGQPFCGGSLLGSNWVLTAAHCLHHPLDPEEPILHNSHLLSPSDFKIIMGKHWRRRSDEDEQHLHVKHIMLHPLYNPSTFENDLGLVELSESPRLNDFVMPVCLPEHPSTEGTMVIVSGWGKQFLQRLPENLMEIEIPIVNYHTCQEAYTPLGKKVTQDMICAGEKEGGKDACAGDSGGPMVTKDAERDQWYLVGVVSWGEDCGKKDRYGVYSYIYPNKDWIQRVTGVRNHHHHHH

[2] = target: recombinant rat MASP2 active protease (amino acids 296-685, C-terminal His Tag) (rat, UniProt Q9JJS8 296-685); assay: cell-based or functional assay
Chain of recombinant rat MASP2 active protease (amino acids 296-685, C-terminal His Tag) (Q9JJS8 other isoform, or with tags, fused parts or gaps limits assumed): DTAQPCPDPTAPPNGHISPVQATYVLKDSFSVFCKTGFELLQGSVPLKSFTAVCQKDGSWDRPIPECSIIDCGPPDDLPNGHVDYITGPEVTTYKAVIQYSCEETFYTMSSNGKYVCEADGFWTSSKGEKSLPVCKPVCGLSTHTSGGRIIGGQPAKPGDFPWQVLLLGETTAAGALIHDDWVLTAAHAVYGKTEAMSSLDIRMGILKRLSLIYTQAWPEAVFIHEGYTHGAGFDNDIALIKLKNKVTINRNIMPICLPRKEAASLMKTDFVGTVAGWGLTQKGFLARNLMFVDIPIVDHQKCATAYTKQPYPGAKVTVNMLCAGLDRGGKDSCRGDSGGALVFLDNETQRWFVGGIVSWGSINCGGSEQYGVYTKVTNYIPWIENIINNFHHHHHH

| Binder | rat MASP1 IC50 [1] [nM] | rat MASP2 IC50 [2] [nM] |
| --- | --- | --- |
| [Sar]ICSRSLP[Oic]I[Pen]I[5‑Azaspiro(2.4)heptane‑1‑carboxylic acid]-OH (disulfide 3-11) [Example 194: ((N-Me)G)-IC+SRSLP-(Oic)-I-(Pen)+I-((5-Azaspiro[2.4]heptane-1-carboxylic acid)-OH] | 70 | 42 |
| [Sar]ICSRS[tBuAla]PPI[Pen]IP-{PEG2-NH2} (disulfide 3-11) [Example 207: ((N-Me)G)-IC+SRS-((tBu)A)-PPI-(Pen)+IP-(PEG1(10 atoms))-NH2] | 43 | 33.6 |
| B1 | 24.6 | 34.5 |
| B2 | 1000 | 1000 |
| B3 | 60.4 | 42.4 |
| B4 | 61 | 8.6 |
| B5 | 380 | 29 |
| {2‑(3-Pyridyl)acetic acid}-ICSRS[tBuAla]PPI[Pen]IP-NH2 (disulfide 2-10) [Example 226: (2-(3-Pyridyl)acetic acid)-IC+SRS-((tBu)A)-PPI-(Pen)+IP-NH2] | 29 | 2.9 |
| B6 | 180 | 49 |
| B7 | 100 | 15 |
| B8 | 77 | 3.7 |
| B9 | 67.3 | 125 |
| B10 | 65.6 | 35.1 |
| B11 | 57 | 10.9 |
| B12 | 75 | 23 |
